± gives the half width of the 95% confidence interval.
What was measured:
[1] = folding stability dG unfold from trypsin proteolysis; higher = more stable
Procedure, shortened: (§1)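 Unfolding free energy was derived, per protease or combined, against a sequence-predicted unfolded-state K50 and a shared folded-state K50, starting from K50 inferred by Bayesian fitting of sequencing counts. Digestion with trypsin and chymotrypsin was carried out on designed mini-proteins under 80 residues without cysteine in a PA-tagged cDNA display construct. Only designs with AlphaFold2 dimer inter-PAE above 15 were kept.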

[2] = folding stability dG unfold from chymotrypsin proteolysis; higher = more stable
Procedure, shortened: as §1

[3] = folding stability dG unfold (combined trypsin and chymotrypsin); higher = more stable
Procedure, shortened: as §1

Row | Sequence | folding stability dG unfold [1] | folding stability dG unfold [2] | folding stability dG unfold [3]
1 | SAGGSAGGSAGGSMSVSSVGSSSGAGMIVKTTYFPGSGGTTVVLIEPASGVVLATTPVPGSAGGSAGGSAGG [r7_154_JUSTAS] | 0.493 ± 0.04 kcal/mol | 0.272 ± 0.079 kcal/mol | 0.374 ± 0.13 kcal/mol
2 | SAGGSAGGSAGGSMTSIKITYPDGSTKSASVSVDPNTGKVTTTFTDYTLSPDAKFTTISSAGGSAGGSAGGS [r10_306_JUSTAS] | 0.372 ± 0.027 kcal/mol | 0.202 ± 0.11 kcal/mol | 0.325 ± 0.073 kcal/mol
3 | SAGGSAGGSAGGSMVIRNENGYLIEVKTEVVVDEETKKKYVKTEIRIYKEGEEKELPEESAGGSAGGSAGGS [r4_48_TrROS_Hall] | 0.369 ± 0.055 kcal/mol | 1.13 ± 0.1 kcal/mol | 1 ± 0.22 kcal/mol
4 | SAGGSAGGSAGGSMVLTTTVEETVVDENGVETKITVKTYKLPDSEITLVTFPDGTVTPESAGGSAGGSAGGS [r10_404_JUSTAS] | 0.493 ± 0.023 kcal/mol | 0.462 ± 0.1 kcal/mol | 0.493 ± 0.072 kcal/mol
5 | SAGGSAGGSAGGSNIEVHYFPDGAIVMTIREPNGWYIKIVARIPPDGNIKITEIELFPMSAGGSAGGSAGGS [r4_246_TrROS] | 3.24 ± 0.11 kcal/mol | 3.78 ± 0.11 kcal/mol | 3.49 ± 0.2 kcal/mol
6 | SAGGSAGGSAGGSNIPSDSTVTSKGSSDTTTSTYYNPETGTTLVTTTPPDGVPTTTTTASAGGSAGGSAGGS [r10_592_JUSTAS] | 0.621 ± 0.059 kcal/mol | -0.398 ± 0.36 kcal/mol | 0.159 ± 0.12 kcal/mol
7 | SAGGSAGGSAGGSPEFKIVSVEYDPETGLVTLEIEREDGSTLRFVFDKDGKLVRVEELPSAGGSAGGSAGGS [r4_259_TrROS_Hall] | 3.31 ± 0.22 kcal/mol | 4.56 ± 0.15 kcal/mol | 4.44 ± 0.19 kcal/mol
8 | SAGGSAGGSAGGSPKRVTMYFIIPFYILIPKEDADGNNEWVIIPITIIIKIEIELPPGDSAGGSAGGSAGGS [r4_326_TrROS] | 4.5 ± 0.15 kcal/mol | 5.49 ± 0.14 kcal/mol | 5.48 ± 0.19 kcal/mol
9 | SAGGSAGGSAGGSPKTILLEVNGRLVLVTVKDGKVEIRDLENPNKTYTFPPGAKILIVDSAGGSAGGSAGGS [r4_321_TrROS_Hall] | 1.61 ± 0.021 kcal/mol | 1.91 ± 0.035 kcal/mol | 1.84 ± 0.06 kcal/mol
10 | SAGGSAGGSAGGSPLLDFPEPVTTLEETTVTVYFDTNDFTVTLNVTTEVTGDVKRPTVVGSAGGSAGGSAGG [r7_735_JUSTAS] | 1.1 ± 0.044 kcal/mol | 0.464 ± 0.051 kcal/mol | 0.788 ± 0.11 kcal/mol
11 | SAGGSAGGSAGGSPNWKWVEMEITFNVPPGAKITIPNGIKLTVPPGDPVTIKIYIAVPPSAGGSAGGSAGGS [r4_232_TrROS] | 1.94 ± 0.12 kcal/mol | 2.96 ± 0.048 kcal/mol | 2.47 ± 0.31 kcal/mol
12 | SAGGSAGGSAGGSPNYRLEIRVDIKVSYRYDLFTGEPIEPEVEIEVEIRLIPEGAIVDESAGGSAGGSAGGS [r4_175_TrMRF] | 3.87 ± 0.14 kcal/mol | 4.54 ± 0.28 kcal/mol | 4.57 ± 0.28 kcal/mol
13 | SAGGSAGGSAGGSPPGQEILIQIKIEFTFPIKKQTDGKPQWHPITISFTAAIPIKVDPNSAGGSAGGSAGGS [r4_271_TrROS] | 3.22 ± 0.13 kcal/mol | 3.59 ± 0.092 kcal/mol | 3.52 ± 0.14 kcal/mol
14 | SAGGSAGGSAGGSPVIIPDKGYLVVELEEEGLLVVYPLYPDGEIGPAFVRPVHPDVPVLSAGGSAGGSAGGS [r4_409_TrMRF] | 2.61 ± 0.062 kcal/mol | 0.982 ± 0.039 kcal/mol | 1.92 ± 0.072 kcal/mol
15 | SAGGSAGGSAGGSPVRVKLKFKKKFTVLLPLTDEDDEILDVEKEYTVEITLEVTLPPDLSAGGSAGGSAGGS [r4_326_TrMRF] | 3.26 ± 0.15 kcal/mol | 4.34 ± 0.2 kcal/mol | 4.01 ± 0.48 kcal/mol
16 | SAGGSAGGSAGGSRMRLEITVRDENGLLVRLEVEFEEKDGELEMKVRAEVFPLPEEEEESAGGSAGGSAGGS [r4_168_TrROS_Hall] | 0.939 ± 0.04 kcal/mol | 2.71 ± 0.059 kcal/mol | 2.44 ± 0.1 kcal/mol
17 | SAGGSAGGSAGGSSFTIKVELKDENGNKYTITVTGTGSAETVKKELEKKYPNKIVKITGSAGGSAGGSAGGS [r4_412_TrMRF] | 1.93 ± 0.089 kcal/mol | 2.897 ± 0.025 kcal/mol | 2.69 ± 0.046 kcal/mol
18 | SAGGSAGGSAGGSSKVIEVNGYKITVTDNSVEIYNKKTGKKITVNADNPEVQELLKKLLSAGGSAGGSAGGS [r4_353_TrROS_Hall] | 3.6 ± 0.089 kcal/mol | 4.254 ± 0.037 kcal/mol | 4.07 ± 0.094 kcal/mol
19 | SAGGSAGGSAGGSSSSLTPIGSSEKLEKLPDSSLRLVTTTTYRDPVTGETSTTTTVTLTDSAGGSAGGSAGG [r7_546_JUSTAS] | -0.46 ± 0.091 kcal/mol | 0.861 ± 0.045 kcal/mol | 0.487 ± 0.052 kcal/mol
20 | SAGGSAGGSAGGSSSSSITTEERPVDEDSVEKTFKFPDYYVVETLDPRTGRTSVSFIPVSAGGSAGGSAGGS [r4_99_JUSTAS] | 0.756 ± 0.021 kcal/mol | 0.249 ± 0.041 kcal/mol | 0.533 ± 0.072 kcal/mol
21 | SAGGSAGGSAGGSSSVSVDTDPETGLITVTTYSSSGGVTVTLYEKPPDGSLTPVSTTAVSAGGSAGGSAGGS [r4_106_JUSTAS] | 1.08 ± 0.045 kcal/mol | 0.844 ± 0.07 kcal/mol | 1.01 ± 0.046 kcal/mol

Source: the supplement of paper PMC12764529
